Reference: paper PMC6286129, “CryoEM structures of open dimers of gyrase A in complex with DNA illuminate mechanism of strand passage” (eLife, 2018)

Tests used:
[1] = biological target: the molecule itself; experiment: cryo-EM structure; Tetrahedral complex: GyrA-ΔCTD mixed with GyrB, 44 bp DNA, ciprofloxacin and novobiocin; purified on a glycerol/glutaraldehyde gradient (GraFix)
[2] = biological target: the molecule itself; experiment: cryo-EM structure; Dihedral complex: GyrA-ΔCTD mixed with 44 bp DNA and ciprofloxacin, no GyrB; purified on a glycerol/glutaraldehyde gradient (GraFix); also a low resolution reconstruction without glutaraldehyde or antibiotics

B1: Streptococcus pneumoniae gyrase A subunit with truncated C-terminal domain (GyrA-ΔCTD, residues 1–487) (domain or fragment, UniProt P72524 1-487, looked up)
chain: MQDKNLVNVNLTKEMKASFIDYAMSVIVARALPDVRDGLKPVHRRILYGMNELGVTPDKPHKKSARITGDVMGKYHPHGDSSIYEAMVRMAQWWSYRYMLVDGHGNFGSMDGDSAAAQRYTEARMSKIALEMLRDINKNTVDFVDNYDANEREPLVLPARFPNLLVNGATGIAVGMATNIPPHNLGETIDAVKLVMDNPEVTTKDLMEVLPGPDFPTGALVMGKSGIHKAYETGKGSIVLRSRTEIETTKTGRERIVVTEFPYMVNKTKVHEHIVRLVQEKRIEGITAVRDESNREGVRFVIEVKRDASANVILNNLFKMTQMQTNFGFNMLAIQNGIPKILSLRQILDAYIEHQKEVVVRRTRFDKEKAEARAHILEGLLIALDHIDEVIRIIRASETDAEAQAELMSKFKLSERQSQAILDMRLRRLTGLERDKIQSEYDDLLALIADLADILAKPERVSQIIKDELDEVKRKFSDKRRTELMIG
notes: DNA gyrase subunit A, Streptococcus pneumoniae, gene cloned from the ATCC genome 700669DQ; residues 1-487 (C-terminal domain removed); The vector pMCSG7 adds 24 amino acids at the N-terminus, with a six amino acid His-tag and a TEV cleavage site; It forms open dimers that assemble around a 44 bp DNA into oligomers of four dimers (Dihedral complex) or six dimers (Tetrahedral complex); also called …
stoichiometry N [1]: 12 monomers
stoichiometry N [2]: 8 monomers
